7 sequences from the supplement of paper PMC5998384 can be followed below.

Data set [1] has as its system HeLa Kyoto. Description: solubility in G1/S (NP-40 vs SDS abundance) (log2 ratio); higher = more soluble. The note with it: cell cycle stage: G1/S.
Data set [2] concerns HeLa Kyoto. The experiment in a line: solubility change mitosis vs G1/S (difference of NP-40 vs SDS log2 ratios) (log2 ratio difference); higher = more soluble in mitosis.
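Throughout, for solubility change mitosis vs G1/S (difference of NP-40 vs SDS log2 ratios): synchronized HeLa Kyoto cells (double thymidine block for G1/S, nocodazole release for mitosis), protein amounts in NP-40 versus SDS lysates quantified by mass spectrometry, three biological replicates.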
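Throughout, for solubility in G1/S (NP-40 vs SDS abundance): HeLa Kyoto cells arrested at G1/S by double thymidine block, proteins quantified by TMT10plex mass spectrometry in mild NP-40 versus SDS extracts, three biological replicates.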

In the case of “MEGESSRFEIHTPVSDKKKKKCSIHKERPQKHSHEIFRDSSLVNEQSQITRRKKRKKDFQHLISSPLKKSRICDETANATSTLKKRKKRRYSALEVDEEAGVTVVLVDKENINNTPKHFRKDVDVVCVDMSIEQKLPRKPKTDKFQVLAKSHAHKSEALHSKVREKKNKKHQRKAASWESQRARDTLPQSESHQEESWLSVGPGGEITELPASAHKNKSKKKKKKSSNREYETLAMPEGSQAGREAGTDMQESQPTVGLDDETPQLLGPTHKKKSKKKKKKKSNHQEFEALAMPEGSQVGSEVGADMQESRPAVGLHGETAGIPAPAYKNKSKKKKKKSNHQEFEAVAMPESLESAYPEGSQVGSEVGTVEGSTALKGFKESNSTKKKSKKRKLTSVKRARVSGDDFSVPSKNSESTLFDSVEGDGAMMEEGVKSRPRQKKTQACLASKHVQEAPRLEPANEEHNVETAEDSEIRYLSADSGDADDSDADLGSAVKQLQEFIPNIKDRATSTIKRMYRDDLERFKEFKAQGVAIKFGKFSVKENKQLEKNVEDFLALTGIESADKLLYTDRYPEEKSVITNLKRRYSFRLHIGRNIARPWKLIYYRAKKMFDVNNYKGRYSEGDTEKLKMYHSLLGNDWKTIGEMVARSSLSVALKFSQISSQRNRGAWSKSETRKLIKAVEEVILKKMSPQELKEVDSKLQENPESCLSIVREKLYKGISWVEVEAKVQTRNWMQCKSKWTEILTKRMTNGRRIYYGMNALRAKVSLIERLYEINVEDTNEIDWEDLASAIGDVPPSYVQTKFSRLKAVYVPFWQKKTFPEIIDYLYETTLPLLKEKLEKMMEKKGTKIQTPAAPKQVFPFRDIFYYEDDSEGEDIEKESEGQAPCMAHACNSSTLGGQGRWII [TTF1]”, in data set [1], the “solubility in G1/S (log2)” value is -1.02. Also, the “solubility change mitosis (log2)” value in data set [2] came out at 0.169.
Consider “MEGSFSDGGALPEGLAEEAEPQGAAWSGDSGTVSQSHSSASGPWEDEGAEDGAPGRDLPLLRRAAAGYAACLLPGAGARPEVEALDASLEDLLTRVDEFVGMLDMLRGDSSHVVSEGVPRIHAKAAEMRRIYSRIDRLEAFVRMVGGRVARMEEQVTKAEAELGTFPRAFKKLLHTMNVPSLFSKSAPSRPQQAGYEAPVLFRTEDYFPCCSERPQL [BLOC1S4]”, for which the “solubility in G1/S (log2)” value in data set [1] was 0.477. Also, the “solubility change mitosis (log2)” value in data set [2] came to 0.323.
Regarding “MEKMSRVTTALGGSVLTGRTMHCHLDAPANAISVCRDAAQVVVAGRSIFKIYAIEEEQFVEKLNLRVGRKPSLNLSCADVVWHQMDENLLATAATNGVVVTWNLGRPSRNKQDQLFTEHKRTVNKVCFHPTEAHVLLSGSQDGFMKCFDLRRKDSVSTFSGQSESVRDVQFSIRDYFTFASTFENGNVQLWDIRRPDRCERMFTAHNGPVFCCDWHPEDRGWLATGGRDKMVKVWDMTTHRAKEMHCVQTIASVARVKWRPECRHHLATCSMMVDHNIYVWDVRRPFVPAAMFEEHRDVTTGIAWRHPHDPSFLLSGSKDSSLCQHLFRDASQPVERANPEGLCYGLFGDLAFAAKESLVAAESGRKPYTGDRRHPIFFKRKLDPAEPFAGLASSALSVFETEPGGGGMRWFVDTAERYALAGRPLAELCDHNAKVARELGRNQVAQTWTMLRIIYCSPGLVPTANLNHSVGKGGSCGLPLMNSFNLKDMAPGLGSETRLDRSKGDARSDTVLLDSSATLITNEDNEETEGSDVPADYLLGDVEGEEDELYLLDPEHAHPEDPECVLPQEAFPLRHEIVDTPPGPEHLQDKADSPHVSGSEADVASLAPVDSSFSLLSVSHALYDSRLPPDFFGVLVRDMLHFYAEQGDVQMAVSVLIVLGERVRKDIDEQTQEHWYTSYIDLLQRFRLWNVSNEVVKLSTSRAVSCLNQASTTLHVNCSHCKRPMSSRGWVCDRCHRCASMCAVCHHVVKGLFVWCQGCSHGGHLQHIMKWLEGSSHCPAGCGHLCEYS [WDR24]”, in data set [1], the “solubility in G1/S (log2)” value was -0.232. The “solubility change mitosis (log2)” value in data set [2] is -0.106.
For “MELATRYQIPKEVADIFNAPSDDEEFVGFRDDVPMETLSSEESCDSFDSLESGKQQDVRFHSKYFTEELRRIFIEDTDSETEDFAGFTQSDLNGKTNPEVMVVESDLSDDGKASLVSEEEEDEEEDKATPRRSRSRRSSIGLRVAFQFPTKKLANKPDKNSSSEQLFSSARLQNEKKTILERKKDCRQVIQREDSTSESEDDSRDESQESSDALLKRTMNIKENKAMLAQLLAELNSMPDFFPVRTPTSASRKKTVRRAFSEGQITRRMNPTRSARPPEKFALENFTVSAAKFAEEFYSFRRRKTIGGKCREYRRRHRISSFRPVEDITEEDLENVAITVRDKIYDKVLGNTCHQCRQKTIDTKTVCRNQGCCGVRGQFCGPCLRNRYGEDVRSALLDPDWVCPPCRGICNCSYCRKRDGRCATGILIHLAKFYGYDNVKEYLESLQKELVEDN [CDCA7L]”, in that order: -0.846 and 0.727.
Consider “MELGKGKLLRTGLNALHQAVHPIHGLAWTDGNQVVLTDLRLHSGEVKFGDSKVIGQFECVCGLSWAPPVADDTPVLLAVQHEKHVTVWQLCPSPMESSKWLTSQTCEIRGSLPILPQGCVWHPKCAILTVLTAQDVSIFPNVHSDDSQVKADINTQGRIHCACWTQDGLRLVVAVGSSLHSYIWDSAQKTLHRCSSCLVFDVDSHVCSITATVDSQVAIATELPLDKICGLNASETFNIPPNSKDMTPYALPVIGEVRSMDKEATDSETNSEVSVSSSYLEPLDLTHIHFNQHKSEGNSLICLRKKDYLTGTGQDSSHLVLVTFKKAVTMTRKVTIPGILVPDLIAFNLKAHVVAVASNTCNIILIYSVIPSSVPNIQQIRLENTERPKGICFLTDQLLLILVGKQKLTDTTFLPSSKSDQYAISLIVREIMLEEEPSITSGESQTTYSTFSAPLNKANRKKLIESLSPDFCHQNKGLLLTVNTSSQNGRPGRTLIKEIQSPLSSICDGSIALDAEPVTQPASLPRHSSTPDHTSTLEPPRLPQRKNLQSEKETYQLSKEVEILSRNLVEMQRCLSELTNRLHNGKKSSSVYPLSQDLPYVHIIYQKPYYLGPVVEKRAVLLCDGKLRLSTVQQTFGLSLIEMLHDSHWILLSADSEGFIPLTFTATQEIIIRDGSLSRSDVFRDSFSHSPGAVSSLKVFTGLAAPSLDTTGCCNHVDGMA [C2ORF44]”, for which the “solubility in G1/S (log2)” value in data set [1] was -0.00732. For the same sequence, the “solubility change mitosis (log2)” value in data set [2] is -0.0919.
Consider “MENELPVPHTSSSACATSSTSGASSSSGCNNSSSGGSGRPTGPQISVYSGIPDRQTVQVIQQALHRQPSTAAQYLQQMYAAQQQHLMLQTAALQQQHLSSAQLQSLAAVQQASLVSNRQGSTSGSNVSAQAPAQSSSINLAASPAAAQLLNRAQSVNSAAASGIAQQAVLLGNTSSPALTASQAQMYLRAQMLIFTPTATVATVQPELGTGSPARPPTPAQVQNLTLRTQQTPAAAASGPTPTQPVLPSLALKPTPGGSQPLPTPAQSRNTAQASPAGAKPGIADSVMEPHKKGDGNSSVPGSMEGRAGLSRTVPAVAAHPLIAPAYAQLQPHQLLPQPSSKHLQPQFVIQQQPQPQQQQPPPQQSRPVLQAEPHPQLASVSPSVALQPSSEAHAMPLGPVTPALPLQCPTANLHKPGGSQQCHPPTPDTGPQNGHPEGVPHTPQRRFQHTSAVILQLQPASPPQQCVPDDWKEVAPGEKSVPETRSGPSPHQQAIVTAMPGGLPVPTSPNIQPSPAHETGQGIVHALTDLSSPGMTSGNGNSASSIAGTAPQNGENKPPQAIVKPQILTHVIEGFVIQEGAEPFPVGRSSLLVGNLKKKYAQGFLPEKLPQQDHTTTTDSEMEEPYLQESKEEGAPLKLKCELCGRVDFAYKFKRSKRFCSMACAKRYNVGCTKRVGLFHSDRSKLQKAGAATHNRRRASKASLPPLTKDTKKQPTGTVPLSVTAALQLTHSQEDSSRCSDNSSYEEPLSPISASSSTSRRRQGQRDLELPDMHMRDLVGMGHHFLPSEPTKWNVEDVYEFIRSLPGCQEIAEEFRAQEIDGQALLLLKEDHLMSAMNIKLGPALKIYARISMLKDS [PHC2]”, for which the “solubility in G1/S (log2)” value in data set [1] was -0.368. Further, in data set [2], the “solubility change mitosis (log2)” value came out at 0.555.
Take “MEPLKVEKFATAKRGNGLRAVTPLRPGELLFRSDPLAYTVCKGSRGVVCDRCLLGKEKLMRCSQCRVAKYCSAKCQKKAWPDHKRECKCLKSCKPRYPPDSVRLLGRVVFKLMDGAPSESEKLYSFYDLESNINKLTEDKKEGLRQLVMTFQHFMREEIQDASQLPPAFDLFEAFAKVICNSFTICNAEMQEVGVGLYPSISLLNHSCDPNCSIVFNGPHLLLRAVRDIEVGEELTICYLDMLMTSEERRKQLRDQYCFECDCFRCQTQDKDADMLTGDEQVWKEVQESLKKIEELKAHWKWEQVLAMCQAIISSNSERLPDINIYQLKVLDCAMDACINLGLLEEALFYGTRTMEPYRIFFPGSHPVRGVQVMKVGKLQLHQGMFPQAMKNLRLAFDIMRVTHGREHSLIEDLILLLEECDANIRAS [SMYD3]”: the “solubility in G1/S (log2)” value in data set [1] is -0.0441. Moreover, the “solubility change mitosis (log2)” value in data set [2] was -0.167.
